Tests used:
Format in all cases: cell-based
[1] = tested on: H1 human embryonic stem cells; experiment: Secondary assay: compound combined with individual growth factors or small molecules, no activin A (Example 5, Table 4); conditions: agent combined with 2.5 μM compound and Wnt3a, no activin A
[2] = tested on: H1 human embryonic stem cells; experiment: Definitive endoderm formation with TGF superfamily members, SOX17 and cell number (Example 14); conditions: dose titration with Wnt3a, Compound 34, or both
Method: Clusters were centrifuged at low speed to collect a cell pellet and remove residual dispase. […] All human embryonic stem cell lines were maintained at passage numbers less than 50 and routinely evaluated for normal karyotype and absence of mycoplasma.
Cells were washed again three times with PBS and blocked with 4% chicken serum (Invitrogen; Cat #16110082) in PBS for 30 minutes at room temperature. […] Plates were washed once with PBS and left in 100 μl/well PBS for imaging.

[3] = tested on: H1 human embryonic stem cells; experiment: Definitive endoderm formation with GDF family members, SOX17 and cell number (Example 13); conditions: for SOX17 expression, GDF growth factor substituting for activin A: 100 ng/ml GDF, alone or with Wnt3a, Compound 34 or Compound 56, four days
Method: Stock cultures of human embryonic stem cells (H1 human embryonic stem cell line) were maintained in an undifferentiated, pluripotent state on reduced growth factor […]™ (BD Biosciences; Cat #356231)-coated dishes in MEF conditioned medium with passage on average every four days. Passage was performed by exposing cell cultures to a solution of 1 mg/ml dispase (Invitrogen; Cat #17105-041) for 5 to 7 minutes at 37° C. followed by rinsing the monolayer with MEF conditioned culture medium and gentle scraping to recover cell clusters. Clusters were centrifuged at low speed to collect a cell pellet and remove residual dispase. Cell clusters were split at a 1:3 or 1:4 ratio for routine maintenance culture or a 1:1 ratio for immediate assay. All human ES cell lines were maintained at passage numbers less than 50 and routinely evaluated for normal karyotype and absence of mycoplasma.
Cell clusters were evenly resuspended in MEF conditioned medium supplemented with 8 ng/ml bFGF and seeded onto reduced growth factor […]™-coated 96-well Packard VIEWPLATES (PerkinElmer; Cat #6005182) in volumes of 0.1 ml/well. Daily feeding was conducted by aspirating spent culture medium from each well and replacing with an equal volume of fresh medium. Plates were maintained at 37° C., 5% CO2 throughout the duration of assay.
The assay was initiated by aspirating the culture medium from each well and adding back aliquots (100 μl) of test medium. Test conditions were performed in triplicate over a total four-day assay period, feeding on day 1 and day 3 by aspirating and replacing the medium from each well with fresh test medium. Various members of the GDF family of proteins were obtained for testing as follows: GDF-3 (PeproTech; Cat #120-22); GDF-5 (DePuy Orthopaedics, Inc., a Johnson & Johnson company); GDF-8 (R&D Systems; Cat #788-G8); GDF-10 (R&D Systems; Cat #1543-BP); GDF11 (PeproTech; Cat #120-11); GDF-15 (R&D Systems; Cat #957-GD). On the first day of assay, all wells received an aliquot (80 μl) of basal medium DMEM:F12 medium (Invitrogen; Cat #11330-032) supplemented with 0.5% fetal bovine serum (Hyclone; Cat #SH30070.03). A series of five different control or experimental test samples was created to evaluate activin A or various GDFs in combination with Wnt3a or Compound 34 or Compound 56. These test samples were added in 20 μl aliquots (5× concentrated) to appropriately matched assay wells to yield a final assay volume of 100 μl in each well at the final assay conditions indicated. In the first set of control samples, the following conditions were tested: 1) no additive (i.e. no supplementary growth factor or small molecule); 2) 100 ng/ml activin A (PeproTech; Cat #120-14) in combination with 20 ng/ml Wnt3a (R&D Systems; Cat #1324-WN/CF); 3) 20 ng/ml Wnt3a alone; 4) Compound 34 alone (2.5 μM) without any growth factor or small molecule; 5) Compound 56 alone (2.5 μM) without any growth factor or small molecule. In the second set of test samples, the following conditions were tested in combination with 100 ng/ml GDF3: 1) no additive (i.e. GDF-3 alone); 2) 20 ng/ml Wnt3a; 3) 20 ng/ml Wnt3a with Compound 34 (2.5 μM); 4) Compound 34 (2.5 μM); 5) Compound 56 (2.5 μM); and 6) 20 ng/ml Wnt3a with Compound 56 (2.5 μM). In the third set of test samples, each of the six conditions was combined with 100 ng/ml GDF-5. In the fourth set of test samples, each of the six conditions was combined with 100 ng/ml GDF-8. In the fifth set of test samples, each of the six conditions was combined with 100 ng/ml GDF-10. In the sixth set of test samples, each of the six conditions was combined with 100 ng/ml GDF-11. In the seventh set of test samples, each of the six conditions was combined with 100 ng/ml GDF-15. On the third day of assay, all wells for all test samples, received 100 ng/ml Activin A or 100 ng/ml respective GDF growth factor, without Wnt3a or Compound 34 or Compound 56, diluted into DMEM:F12 medium supplemented with 2% FBS. […]

For “BMP-4: member of the BMP family, R&D Systems”, the “effect on SOX17 expression” value [1] was “inhibited or had negligible effects on SOX17 expression”, the “cell numbers at the conclusion of assay” value [2] was “significant effect on cell numbers” and the “induction of SOX17 expression compared to the Wnt3a treatment alone” value [2] was “weak or negligible”.

In the case of “TGFβ-1: TGF superfamily growth factor, R&D Systems”, the “induction of SOX17 expression compared to the Wnt3a treatment alone” value [2] is reported as “weak or negligible”.

B1: GDF11: member of the GDF family of proteins (PeproTech) (protein, UniProt O95390 299-407, looked up)
Growth/differentiation factor …: NLGLDCDEHSSESRCCRYPLTVDFEAFGWDWIIAPKRYKANYCSGQCEYMFMQKYPHTHLVQQANPRGSAGPCCTPTKMSPINMLYFNDKQQIIYGKIPGMVVDRCGCS
In the case of B1, the “SOX17 expression, GDF growth factor substituting for activin A” value (from here on “SOX17 expression … for activin A”) [3] is reported as “induced significant levels of SOX17 expression”.

B2: GDF10: member of the GDF family of proteins (R&D Systems) (protein, UniProt P55107 369-478, looked up)
Growth/differentiation factor …: QWDEPRVCSRRYLKVDFADIGWNEWIISPKSFDAYYCAGACEFPMPKIVRPSNHATIQSIVRAVGIIPGIPEPCCVPDKMNSLGVLFLDENRNVVLKVYPNMSVDTCACR
For B2, the “SOX17 expression … for activin A” value [3] was “induced significant levels of SOX17 expression”.

B3: GDF-3: member of the GDF family of proteins (PeproTech) (protein, UniProt Q9NR23 251-364, looked up)
Growth/differentiation factor …: AAIPVPKLSCKNLCHRHQLFINFRDLGWHKWIIAPKGFMANYCHGECPFSLTISLNSSNYAFMQALMHAVDPEIPQAVCIPTKLSPISMLYQDNNDNVILRHYEDMVVDECGCG
In the case of B3, the “SOX17 expression … for activin A” value [3] is reported as “induced weak expression of SOX17”.

B4: BMP3: growth factor protein, R&D Systems (protein, UniProt P12645 363-472, looked up)
Bone morphogenetic protein 3: QWIEPRNCARRYLKVDFADIGWSEWIISPKSFDAYYCSGACQFPMPKSLKPSNHATIQSIVRAVGVVPGIPEPCCVPEKMSSLSILFFDENKNVVLKVYPNMTVESCACR
In the case of B4, the “induction of SOX17 expression compared to the Wnt3a treatment alone” value [2] is reported as “weak or negligible”.

B5: Wnt3a: Wnt3a recombinant protein (R&D Systems) (protein, UniProt P56704 19-352, looked up)
Protein Wnt-3a: SYPIWWSLAVGPQYSSLGSQPILCASIPGLVPKQLRFCRNYVEIMPSVAEGIKIGIQECQHQFRGRRWNCTTVHDSLAIFGPVLDKATRESAFVHAIASAGVAFAVTRSCAEGTAAICGCSSRHQGSPGKGWKWGGCSEDIEFGGMVSREFADARENRPDARSAMNRHNNEAGRQAIASHMHLKCKCHGLSGSCEVKTCWWSQPDFRAIGDFLKDKYDSASEMVVEKHRESRGWVETLRPRYTYFKVPTERDLVYYEASPNFCEPNPETGSFGTRDRTCNVSSHGIDGCDLLCCGRGHNARAERRREKCRCVFHWCCYVSCQECTRVYDVHTCK
With B5 the “SOX17 expression, reagent alone” value ([3]; 20 ng/ml Wnt3a or 2.5 μM compound alone, four days) was “failed to induce SOX17 expression”.

B6: GDF15: member of the GDF family of proteins (R&D Systems) (protein, UniProt Q99988 195-308, looked up)
Growth/differentiation factor …: ARARNGDHCPLGPGRCCRLHTVRASLEDLGWADWVLSPREVQVTMCIGACPSQFRAANMHAQIKTSLHRLKPDTVPAPCCVPASYNPMVLIQKTDTGVSLQTYDDLLAKDCHCI
B6 was tested, and the “SOX17 expression … for activin A” value [3] was “induced significant levels of SOX17 expression”.

B7: GDF-5: member of the GDF family of proteins (DePuy Orthopaedics) (protein, UniProt P43026 382-501, looked up)
Growth/differentiation factor …: APLATRQGKRPSKNLKARCSRKALHVNFKDMGWDDWIIAPLEYEAFHCEGLCEFPLRSHLEPTNHAVIQTLMNSMDPESTPPTCCVPTRLSPISILFIDSANNVVYKQYEDMVVESCGCR
In the case of B7, the “SOX17 expression … for activin A” value [3] is reported as “induced weak expression of SOX17”.

Reference: patent US9593305B2, “Differentiation of pluripotent stem cells” (Janssen Biotech, Inc., priority 2008, dated 2017)
